From US20230203146A1 (Boehringer Ingelheim, published 2023)
Read-outs that look alike come from different tables or passages of the source.

Columns and labels:
[1] = biological target: T1, FLAG-tagged cynomolgus Ang2 (cynomolgus, UniProt O15123 19-496 (human entry), limits assumed); test: competition ELISA: FLAG-cAng2 binding to coated cTie2-Fc
T1 construct: N-terminally FLAG-tagged, conditioned medium of HEK293T cells; also called cAng2; FLAG-cAng2
T1 chain: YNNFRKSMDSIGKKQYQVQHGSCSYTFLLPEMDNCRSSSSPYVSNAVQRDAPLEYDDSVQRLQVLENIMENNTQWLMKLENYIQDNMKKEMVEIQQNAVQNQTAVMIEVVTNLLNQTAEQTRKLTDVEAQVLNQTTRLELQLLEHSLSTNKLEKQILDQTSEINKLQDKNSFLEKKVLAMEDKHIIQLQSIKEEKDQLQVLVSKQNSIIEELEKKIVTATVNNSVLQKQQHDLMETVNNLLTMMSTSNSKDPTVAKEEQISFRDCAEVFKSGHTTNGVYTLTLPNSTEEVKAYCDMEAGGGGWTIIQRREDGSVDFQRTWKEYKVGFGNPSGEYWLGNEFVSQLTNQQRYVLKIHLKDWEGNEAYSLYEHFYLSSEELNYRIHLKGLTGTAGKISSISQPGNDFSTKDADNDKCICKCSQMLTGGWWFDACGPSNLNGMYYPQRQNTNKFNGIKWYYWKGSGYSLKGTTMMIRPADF
Procedure: (§1) In brief, 2 μg/mL of recombinant mouse Tie2-Fc or cyno Tie2-Fc is coated overnight at 4° C. in a 96-well MaxiSorp plate (Nunc, Wiesbaden, Germany). Coated wells are blocked with a 1% casein solution.

[2] = biological target: T2, FLAG-tagged mouse Ang2 (mouse, UniProt O35608 19-496); test: competition ELISA: FLAG-mAng2 binding to coated mTie2-Fc
T2 construct: N-terminally FLAG-tagged, conditioned medium of HEK293T cells; also called mAng2; FLAG-mAng2
T2 sequence: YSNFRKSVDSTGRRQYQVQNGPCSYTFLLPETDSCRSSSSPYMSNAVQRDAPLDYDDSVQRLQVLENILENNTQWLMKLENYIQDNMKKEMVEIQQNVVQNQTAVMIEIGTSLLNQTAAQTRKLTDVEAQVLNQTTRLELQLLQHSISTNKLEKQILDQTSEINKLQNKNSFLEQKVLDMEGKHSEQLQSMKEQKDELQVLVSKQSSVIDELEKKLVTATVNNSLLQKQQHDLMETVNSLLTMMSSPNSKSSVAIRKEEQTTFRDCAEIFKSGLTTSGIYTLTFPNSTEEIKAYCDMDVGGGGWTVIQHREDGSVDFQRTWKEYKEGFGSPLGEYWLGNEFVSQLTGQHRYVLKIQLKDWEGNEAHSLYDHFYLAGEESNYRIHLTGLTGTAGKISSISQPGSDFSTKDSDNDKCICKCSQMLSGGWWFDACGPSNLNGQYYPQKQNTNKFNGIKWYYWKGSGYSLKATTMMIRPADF
Procedure: as §1

[3] = biological target: T2, FLAG-tagged mouse Ang2; test: as above; remark: listed apart in the source
Procedure: as §1

B1: VHH 00044 (VHH, not shown: small tags and cut ends)
VHH: EVQLVESGGGLVQPGGSLRLSCAASGFALDYYAIGWFRQAPGKEREGVSCISSSDGITYYVDSVKGRFTISRDNSKNTVYLQMNSLRPEDTAVYYCATDSGGYIDYDCMGLGYDYWGQGTLVTVSS
IC50 [1]: 0.13 nM | IC50 [2]: 0.091 nM

B2: VHH 00046 (VHH, not shown: small tags and cut ends)
VHH: EVQLVESGGGLVQPGGSLRLSCAASGFALDYYAIGWFRQAPGKEREGVSCISSSGGITYYVDSVKGRFTISRDNSKNTVYLQMNSLRPEDTAVYYCATDSGGYIDYDCMGLGYDYWGQGTLVTVSS
IC50 [1]: 0.16 nM | IC50 [2]: 0.083 nM

B3: VHH 00045 (VHH, not shown: small tags and cut ends)
VHH: EVQLVESGGGLVQPGGSLRLSCAASGFALDYYAIGWFRQAPGKEREGVSCISSSDGITYYADSVKGRFTISRDNSKNTVYLQMNSLRPEDTAVYYCATDSGGYIDYDCMGLGYDYWGQGTLVTVSS
IC50 [1]: 0.16 nM | IC50 [2]: 0.11 nM

B4: VHH 1D01 (VHH, not shown: small tags and cut ends)
VHH: EVQLVESGGGLVQAGGSLRLSCAASGFTFDDYALGWFRQAAGKEREGVSCIRCSDGSTYYADSVKGRFTISSDNAKNTVYLQMNSLKPEDTAVYYCAASIVPRSKLEPYEYDAWGQGTQVTVSS
notes: Parental llama VHH; also called 001D01
IC50 [1]: 9.1 nM | IC50 [2]: 12.4 nM

B5: VHH 00040 (VHH, not shown: small tags and cut ends)
VHH: EVQLVESGGGLVQPGGSLRLSCAASGFTFDDYALGWFRQAPGKEREGVSCIRCSDGSTYYADSVKGRFTISRDNSKNTVYLQMNSLRPEDTAVYYCAASIVPRSKLEPYEYDAWGQGTLVTVSS
IC50 [1]: 5.8 nM | IC50 [2]: 29 nM

B6: VHH 00925 (VHH, not shown: small tags and cut ends)
VHH: DVQLVESGGGLVQPGGSLRLSCAASGFTFDDYALGWFRQAPGKEREGVSCIRCSGGSTYYADSVKGRFTISSDNSKNTVYLQMNSLRPEDTAVYYCAASIVPRSKLEPYEYDAWGQGTLVTVSS
IC50 [1]: 33 nM | IC50 [2]: 28.4 nM

B7: VHH 00051 (VHH, not shown: small tags and cut ends)
VHH: EVQLVESGGGLVQPGGSLRLSCAASGFTFDDYALGWFRQAAGKEREGVSCIRCSGGSTYYADSVKGRFTISSDNSKNTVYLQMNSLRPEDTAVYYCAASIVPRSKLEPYEYDAWGQGTLVTVSS
IC50 [1]: 15 nM | IC50 [2]: 37.9 nM

B8: VHH 00049 (VHH, not shown: small tags and cut ends)
VHH: EVQLVESGGGLVQPGGSLRLSCAASGFTFDDYALGWFRQAAGKEREGVSCIRCSDGSTYYADSVKGRFTISSDNSKNTVYLQMNSLRPEDTAVYYCAASIVPRSKLEPYEYDAWGQGTLVTVSS
IC50 [1]: 4.5 nM | IC50 [2]: 20.3 nM

B9: VHH 00050 (VHH, not shown: small tags and cut ends)
VHH: EVQLVESGGGLVQPGGSLRLSCAASGFTFDDYALGWFRQAPGKEREGVSCIRCSDGSTYYADSVKGRFTISSDNSKNTVYLQMNSLRPEDTAVYYCAASIVPRSKLEPYEYDAWGQGTLVTVSS
IC50 [1]: 4.8 nM | IC50 [2]: 18.6 nM

B10: VHH 00039 (VHH, not shown: small tags and cut ends)
VHH: EVQLVESGGGLVQPGGSLRLSCAASGFTFDDYALGWFRQAAGKEREGVSCIRCSDGSTYYADSVKGRFTISRDNSKNTVYLQMNSLRPEDTAVYYCAASIVPRSKLEPYEYDAWGQGTLVTVSS
IC50 [1]: 6.4 nM | IC50 [2]: 28.1 nM

B11: VHH 00025 (VHH, not shown: small tags and cut ends)
VHH: EVQLVESGGGLVQAGGSLRLSCAASGFTLDDYAIGWFRQAPGKEREGVSTIRDSDGSTYYADSVKGRFTISSDNDKNTVYLQMNSLKPEDTAVYYCAAVPAGRLRFGEQWYPLYEYDAWGQGTLVTVSS
IC50 [1]: 1.7 nM | IC50 [3]: 4.9 nM

B12: VHH 00026 (VHH, not shown: small tags and cut ends)
VHH: EVQLVESGGGLVQAGGSLRLSCAASGFTLDDYAIGWFRQAPGKEREGVSAIRDSDGSTYYADSVKGRFTISSDNDKNTVYLQMNSLKPEDTAVYYCAAVPAGRLRFGEQWYPLYEYDAWGQGTLVTVSS
IC50 [1]: 1.1 nM | IC50 [3]: 2.6 nM
